# In patent US20250270584A1, “Gene editing to provide insect resistance in crops” (The Regents of the University of California, priority 2022, published 2025):
# Target: GLR3.3-3Flag (Arabidopsis thaliana) (UniProt Q9C8E7)
# Assay: IP-MS, anti-Flag IP of GLR3.3-3Flag from leaves of transgenic plants; co-enrichment, may be indirect
# Chain of GLR3.3-3Flag (Arabidopsis thaliana) (Q9C8E7 24-933): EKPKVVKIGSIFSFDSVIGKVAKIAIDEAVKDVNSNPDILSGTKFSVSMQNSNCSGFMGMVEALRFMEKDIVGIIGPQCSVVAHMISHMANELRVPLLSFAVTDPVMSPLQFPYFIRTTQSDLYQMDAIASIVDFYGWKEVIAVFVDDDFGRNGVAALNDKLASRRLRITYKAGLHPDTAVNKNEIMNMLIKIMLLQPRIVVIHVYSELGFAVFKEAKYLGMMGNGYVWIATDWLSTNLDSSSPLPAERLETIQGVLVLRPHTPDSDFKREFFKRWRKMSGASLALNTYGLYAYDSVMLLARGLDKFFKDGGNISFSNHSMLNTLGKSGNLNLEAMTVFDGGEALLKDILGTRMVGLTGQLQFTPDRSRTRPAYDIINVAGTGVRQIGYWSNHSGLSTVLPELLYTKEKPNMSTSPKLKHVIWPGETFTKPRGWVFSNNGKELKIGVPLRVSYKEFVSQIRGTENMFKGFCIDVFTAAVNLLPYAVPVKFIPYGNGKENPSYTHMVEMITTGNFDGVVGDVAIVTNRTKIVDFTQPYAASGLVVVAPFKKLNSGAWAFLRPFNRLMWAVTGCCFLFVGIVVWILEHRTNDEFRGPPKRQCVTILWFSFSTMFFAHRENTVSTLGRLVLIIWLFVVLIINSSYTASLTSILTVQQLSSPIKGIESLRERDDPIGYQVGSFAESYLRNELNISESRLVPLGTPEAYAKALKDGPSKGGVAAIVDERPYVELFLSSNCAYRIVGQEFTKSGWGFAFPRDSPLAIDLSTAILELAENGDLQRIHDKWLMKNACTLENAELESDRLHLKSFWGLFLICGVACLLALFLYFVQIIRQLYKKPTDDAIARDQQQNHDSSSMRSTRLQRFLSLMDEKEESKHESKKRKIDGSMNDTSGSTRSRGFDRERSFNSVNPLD
row,Substance,unique peptide number (unique peptides)
1,AHA2 (plasma membrane proton ATPase 2) (from UniProt P19456 2-948) (enzyme),17
2,AMY3 (plastid-localized α-amylase) (from UniProt Q94A41 56-887) (enzyme),8
3,ATMS1 (cobalamin-independent synthase family protein) (from UniProt O50008 1-765) (enzyme),14
4,CAM3 (calmodulin) (from UniProt P0DH98 1-149),7
5,CAM5 (calmodulin) (from UniProt Q682T9 1-149),7
6,CAT3 (catalase) (from UniProt Q42547 1-492) (enzyme),6
7,CaM7 (calmodulin 7) (from UniProt P59220 1-149),11
8,EIF3A (a subunit of eukaryotic initiation factor 3 (eIF3)) (from UniProt Q9LD55 1-987),4
9,GLDP1 (glycine decarboxylase P-protein 1) (from UniProt Q94B78 68-1037) (enzyme),15
10,GLU1 (glutamate synthase 1) (from UniProt Q9ZNZ7 106-1622) (enzyme),57
11,GLU2 (glutamate synthase 2) (from UniProt Q9T0P4 108-1629) (enzyme),13
12,LOX2 (chloroplast lipoxygenase 2) (from UniProt P38418 57-896) (enzyme),9
13,PIP2; 7 (plasma membrane intrinsic protein 3) (from UniProt P93004 1-280),7
14,RCA (rubisco activase) (from UniProt P10896 59-474) (enzyme),12
15,TGG1 (member of glycoside hydrolase family 1) (from UniProt P37702 20-541) (enzyme),6
16,TIC110 (translocon at the chloroplast inner envelope) (from UniProt Q8LPR9 52-1016),16
17,TKL1 (transketolase involved in carbon fixation) (from UniProt Q8RWV0 67-741) (enzyme),17
18,TPP2 (tripeptidyl peptidase II) (from UniProt F4JVN6 1-1380) (enzyme),42
19,UBA1 (ubiquitin-activating enzyme (E1)) (from UniProt P93028 1-1080),7
20,VEN3 (carbamoyl phosphate synthetase (CPS) large subunit) (from UniProt Q42601 63-1187) (enzyme),12
21,"tRNA synthetase class I (I, L, M and V) family protein (from UniProt F4JLM5 1-1190) (enzyme)",62

# Now from value to substance:
row,unique peptide number (unique peptides),Substance
1,23,AHA1 (plasma membrane proton ATPase 1) (from UniProt P20649 2-949) (enzyme)
2,4,CAM6 (calmodulin) (from UniProt Q03509 1-149)
3,6,CAT2 (catalase) (from UniProt P25819 1-492) (enzyme)
4,21,CLPC1 (Clp protease ATP-binding subunit homologue) (from UniProt Q9FI56 39-929)
5,4,EDD1 (glycine-tRNA ligase) (from UniProt Q8L785 51-1067) (enzyme)
6,21,FTIP1 (multiple C2 domain and transmembrane region protein 1) (from UniProt Q9FL59 1-794)
7,4,GAPB (glyceraldehyde-3-phosphate dehydrogenase B subunit) (from UniProt P25857 81-447) (enzyme)
8,11,GLDP2 (P-subunit of glycine decarboxylase) (from UniProt O80988 73-1044) (enzyme)
9,12,GLR2.6 (from UniProt Q9LFN8 32-967) (receptor)
10,4,GLR3.2 (from UniProt Q93YT1 23-912) (receptor)
11,9,GLR3.5 (from UniProt Q9SW97 30-953) (receptor)
12,15,HSP70-1 (member of heat shock protein 70 family) (from UniProt P22953 2-651)
13,12,HSP70-2 (member of heat shock protein 70 family) (from UniProt P22954 1-653)
14,5,KEA1 (K^+ efflux antiporter 1) (from UniProt Q9ZTZ7 50-1193)
15,21,LOS1 (translation elongation factor 2-like protein) (from UniProt Q9ASR1 1-843)
16,17,NIT1 (nitrilase isoenzyme family) (from UniProt P32961 2-346)
17,7,PIP2; 1 (plasma membrane intrinsic protein 2A) (from UniProt P43286 1-287)
18,5,PIP2; 4 (plasma membrane intrinsic protein 2; 4) (from UniProt Q9FF53 1-291)
19,12,PPC2 (phosphoenolpyruvate carboxylase protein 2) (from UniProt Q5GM68 1-963) (enzyme)
20,43,"PWD (chloroplastidic phosphoglucan, water dikinase) (from UniProt Q6ZY51 55-1196) (enzyme)"
21,10,"coatomer, alpha subunit (from UniProt Q9SJT9 1-1218)"
